Here are results for one molecule from patent publication CN112159477A (UNIV SHANGHAI MEDICAL & HEALTH SCIENCES, dated 2021).

Assay [1] has as its target T1, rhMICA-His蛋白 (human, UniProt Q29983 24-308).
T1 construct: Control protein; also called MICA蛋白; not shown: His tag
T1 sequence (looked up): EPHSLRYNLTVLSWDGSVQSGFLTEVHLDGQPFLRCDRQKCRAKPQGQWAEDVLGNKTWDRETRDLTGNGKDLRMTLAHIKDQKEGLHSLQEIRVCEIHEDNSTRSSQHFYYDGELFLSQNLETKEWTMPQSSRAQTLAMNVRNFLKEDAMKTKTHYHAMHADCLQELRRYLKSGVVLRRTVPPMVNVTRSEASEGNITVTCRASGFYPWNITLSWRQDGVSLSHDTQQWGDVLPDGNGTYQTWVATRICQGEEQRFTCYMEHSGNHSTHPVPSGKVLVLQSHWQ
In words: BLI (Fortebio Octet Red96), rhNKG2D-Fc captured on AHC sensor, rhMICA-His 1.23-11.1 nM as analyte. (In general: In BLI a coated tip is dipped into the sample, and binding shifts an interference pattern.)

Assay [2] concerns the target T1, rhMICA-His蛋白. In words: BLI (Fortebio Octet Red96), rhNKG2D-Fc captured on AHC sensor, rhMICA-His as analyte.

B1: rhNKG2D-Fc蛋白 (Fc fusion, human, UniProt P26718 78-216, looked up)
chain: FLNSLFNQEVQIPLTESYCGPCPKNWICYKNNCYQFFDESKNWYESQASCMSQNASLLKVYSKEDQDLLKLVKSYHWMGLVHIPTNGSWQWEDGSILSPNLLTIIEMQKGDCALYASSFKGYIENCSTPNTYICMQRTV
notes: the order of the parts follows the printed name only; not shown: Fc part (captured by an anti-human IgG Fc sensor)
With B1, in the assay with rhMICA-His蛋白 [1], the Kd – broadly, the constant that tells how readily two partners part at equilibrium – was found to be 1.26 nM. Moreover, in the assay with rhMICA-His蛋白 [2], the off-rate constant (koff) (usually the first-order rate constant of dissociation) came out at 0.0015 s⁻¹ and the on-rate constant (kon) – broadly, a measure of how fast the partners come together – was 1.19e+06 M⁻¹ s⁻¹.
